Experiment [1] addresses T1, SARS-CoV-2 Omicron (B.1.1.529) RBD, biotinylated (SARS-CoV-2 Omicron B.1.1.529 (BA.1), strain, biotinylated).
T1 construct: source: bought: ACRObiosystems
The experiment in a line: BLI. Conditions: both partners purified.

The target in experiment [2] is T2, SARS-CoV-2 Omicron BA.5 RBD, biotinylated (SARS-CoV-2 Omicron BA.5, strain, biotinylated).
T2 construct: source: bought: ACRObiosystems
The experiment in a line: BLI. Conditions: both partners purified.

B1: D27LEY (antibody, V domains shown)
VH: QVQLQQSGAEVKKPGSSVKVSCKASGGTFGNWSISWVRQAPGQGLEWMGGIAPGRGEATYAQKFQGRVTITTDESTSTAYMELSSLRSEDTAVYYCARETWYTSGGMDVWGQGTTVTVSS
VL: SYELTQPPSVSVAPGKTARITCGGNNIGRKSVHWYQQKPGQAPVLVVYDDSDRPSGIPERFSGSNSGNTATLTISRVEAGDEADYYCQVYDLWSSDYVFGTGTKVEIK
As for B1, the Kd in experiment [1] was 0.34 nM; in experiment [2], 0.37 nM.

One may read the Kd as a measure of binding affinity in units of concentration.

Values taken from article PMC9714666 (Frontiers in Immunology, 2022).
